Laboratory results as given in US20120034160A1 (AbbVie / Abbott, published 2012).

T1: Recombinant Human IL-17 (human, UniProt Q16552 20-155, limits assumed)
T1 sequence (looked up): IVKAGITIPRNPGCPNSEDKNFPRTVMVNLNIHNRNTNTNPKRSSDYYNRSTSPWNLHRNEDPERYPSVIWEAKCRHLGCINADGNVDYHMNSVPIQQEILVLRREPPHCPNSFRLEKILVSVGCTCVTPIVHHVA

B1: DVD1623 (bispecific antibody, human IgG1, kappa)
heavy: not shown
light: DTQVTQSPSSLSASVGDRVTITCITSTDIDVDMNWYQQKPGKPPKLLISQGNTLRPGVPSRFSSSGSGTDFTFTISSLQPEDFATYYCLQSDNLPLTFGQGTKLEIKRTVAAPDIQMTQSPSSLSASVGDRVTITCRASSGIISYIDWFQQKPGKAPKRLIYATFDLASGVPSRFSGSGSGTDYTLTISSLQPEDFATYYCRQVGSYPETFGQGTKLEIKRTVAAPSVFIFPPSDEQLKSGTASVVCLLNNFYPREAKVQWKVDNALQSGNSQESVTEQDSKDSTYSLSSTLTLSKADYEKHKVYACEVTHQGLSSPVTKSFNRGEC
B2: DVD1615 (bispecific antibody, human IgG1, kappa)
heavy: not shown
light: DTVVTQSPAFLSVTPGEKVTITCITSTDIDVDMNWYQQKPDQPPKLLISQGNTLRPGVPSRFSSSGSGTDFTFTISSLEAEDAATYYCLQSDNLPLTFGQGTKLEIKRTVAAPSVFIFPPEIVLTQSPDFQSVTPKEKVTITCRASQNIGSELHWYQQKPDQSPKLLIKYASHSISGVPSRFSGSGSGTDFTLTINGLEAEDAATYYCHQSDTLPHTFGQGTKVDIKRTVAAPSVFIFPPSDEQLKSGTASVVCLLNNFYPREAKVQWKVDNALQSGNSQESVTEQDSKDSTYSLSSTLTLSKADYEKHKVYACEVTHQGLSSPVTKSFNRGEC
B3: DVD1616 (bispecific antibody, human IgG1, kappa)
heavy: not shown
light: EIVLTQSPDFQSVTPKEKVTITCRASQNIGSELHWYQQKPDQSPKLLIKYASHSISGVPSRFSGSGSGTDFTLTINGLEAEDAATYYCHQSDTLPHTFGQGTKVDIKRTVAAPSVFIFPPDTVVTQSPAFLSVTPGEKVTITCITSTDIDVDMNWYQQKPDQPPKLLISQGNTLRPGVPSRFSSSGSGTDFTFTISSLEAEDAATYYCLQSDNLPLTFGQGTKLEIKRTVAAPSVFIFPPSDEQLKSGTASVVCLLNNFYPREAKVQWKVDNALQSGNSQESVTEQDSKDSTYSLSSTLTLSKADYEKHKVYACEVTHQGLSSPVTKSFNRGEC
B4: DVD1617 (bispecific antibody, human IgG1, kappa)
heavy: not shown
light: ETTVTQSPSSLSASVGDRVTITCITSTDIDVDMNWYQQKPGKPPKLLISQGNTLRPGVPSRFSSSGSGTDFTFTISSLQPEDFATYYCLQSDNLPLTFGQGTKLEIKRTVAAPSVFIFPPEIVLTQSPDFQSVTPKEKVTITCRASQNIGSELHWYQQKPDQSPKLLIKYASHSISGVPSRFSGSGSGTDFTLTINGLEAEDAATYYCHQSDTLPHTFGQGTKVDIKRTVAAPSVFIFPPSDEQLKSGTASVVCLLNNFYPREAKVQWKVDNALQSGNSQESVTEQDSKDSTYSLSSTLTLSKADYEKHKVYACEVTHQGLSSPVTKSFNRGEC
B5: DVD1620 (bispecific antibody, human IgG1, kappa)
heavy: not shown
light: DIQMTQSPSSLSASVGDRVTITCRASSGIISYIDWFQQKPGKAPKRLIYATFDLASGVPSRFSGSGSGTDYTLTISSLQPEDFATYYCRQVGSYPETFGQGTKLEIKRTVAAPDIQMTQSPSSLSASVGDRVTITCRASGNIHNYLTWYQQTPGKAPKLLIYNAKTLADGVPSRFSGSGSGTDYTFTISSLQPEDIATYYCQHFWSIPYTFGQGTKLQITRTVAAPSVFIFPPSDEQLKSGTASVVCLLNNFYPREAKVQWKVDNALQSGNSQESVTEQDSKDSTYSLSSTLTLSKADYEKHKVYACEVTHQGLSSPVTKSFNRGEC
B6: DVD1622 (bispecific antibody, human IgG1, kappa)
heavy: not shown
light: DIQMTQSPSSLSASVGDRVTITCRASSGIISYIDWFQQKPGKAPKRLIYATFDLASGVPSRFSGSGSGTDYTLTISSLQPEDFATYYCRQVGSYPETFGQGTKLEIKRTVAAPDIQMTQSPSSLSASVGDRVTITCRASGNIHNYLTWYQQTPGKAPKLLIYNAKTLADGVPSRFSGSGSGTDYTFTISSLQPEDIATYYCQHFWSIPYTFGQGTKLQITRTVAAPSVFIFPPSDEQLKSGTASVVCLLNNFYPREAKVQWKVDNALQSGNSQESVTEQDSKDSTYSLSSTLTLSKADYEKHKVYACEVTHQGLSSPVTKSFNRGEC
B7: DVD1619 (bispecific antibody, human IgG1, kappa)
heavy: not shown
light: DIQMTQSPSSLSASVGDRVTITCRASGNIHNYLTWYQQTPGKAPKLLIYNAKTLADGVPSRFSGSGSGTDYTFTISSLQPEDIATYYCQHFWSIPYTFGQGTKLQITRTVAAPDIQMTQSPSSLSASVGDRVTITCRASSGIISYIDWFQQKPGKAPKRLIYATFDLASGVPSRFSGSGSGTDYTLTISSLQPEDFATYYCRQVGSYPETFGQGTKLEIKRTVAAPSVFIFPPSDEQLKSGTASVVCLLNNFYPREAKVQWKVDNALQSGNSQESVTEQDSKDSTYSLSSTLTLSKADYEKHKVYACEVTHQGLSSPVTKSFNRGEC
B8: DVD1621 (bispecific antibody, human IgG1, kappa)
heavy: not shown
light: DIQMTQSPSSLSASVGDRVTITCRASGNIHNYLTWYQQTPGKAPKLLIYNAKTLADGVPSRFSGSGSGTDYTFTISSLQPEDIATYYCQHFWSIPYTFGQGTKLQITRTVAAPDIQMTQSPSSLSASVGDRVTITCRASSGIISYIDWFQQKPGKAPKRLIYATFDLASGVPSRFSGSGSGTDYTLTISSLQPEDFATYYCRQVGSYPETFGQGTKLEIKRTVAAPSVFIFPPSDEQLKSGTASVVCLLNNFYPREAKVQWKVDNALQSGNSQESVTEQDSKDSTYSLSSTLTLSKADYEKHKVYACEVTHQGLSSPVTKSFNRGEC
B9: DVD1618 (bispecific antibody, human IgG1, kappa)
heavy: not shown
light: EIVLTQSPDFQSVTPKEKVTITCRASQNIGSELHWYQQKPDQSPKLLIKYASHSISGVPSRFSGSGSGTDFTLTINGLEAEDAATYYCHQSDTLPHTFGQGTKVDIKRTVAAPSVFIFPPETTVTQSPSSLSASVGDRVTITCITSTDIDVDMNWYQQKPGKPPKLLISQGNTLRPGVPSRFSSSGSGTDFTFTISSLQPEDFATYYCLQSDNLPLTFGQGTKLEIKRTVAAPSVFIFPPSDEQLKSGTASVVCLLNNFYPREAKVQWKVDNALQSGNSQESVTEQDSKDSTYSLSSTLTLSKADYEKHKVYACEVTHQGLSSPVTKSFNRGEC
B10: DVD1624 (bispecific antibody, human IgG1, kappa)
heavy: not shown
light: DIQMTQSPSSLSASVGDRVTITCRASSGIISYIDWFQQKPGKAPKRLIYATFDLASGVPSRFSGSGSGTDYTLTISSLQPEDFATYYCRQVGSYPETFGQGTKLEIKRTVAAPDTQVTQSPSSLSASVGDRVTITCITSTDIDVDMNWYQQKPGKPPKLLISQGNTLRPGVPSRFSSSGSGTDFTFTISSLQPEDFATYYCLQSDNLPLTFGQGTKLEIKRTVAAPSVFIFPPSDEQLKSGTASVVCLLNNFYPREAKVQWKVDNALQSGNSQESVTEQDSKDSTYSLSSTLTLSKADYEKHKVYACEVTHQGLSSPVTKSFNRGEC
B11: DVD1625 (bispecific antibody, human IgG1, kappa)
heavy: not shown
light: DTVVTQSPAFLSVTPGEKVTITCITSTDIDVDMNWYQQKPDQPPKLLISQGNTLRPGVPSRFSSSGSGTDFTFTISSLEAEDAATYYCLQSDNLPLTFGQGTKLEIKRTVAAPDIQMTQSPSSLSASVGDRVTITCRASSGIISYIDWFQQKPGKAPKRLIYATFDLASGVPSRFSGSGSGTDYTLTISSLQPEDFATYYCRQVGSYPETFGQGTKLEIKRTVAAPSVFIFPPSDEQLKSGTASVVCLLNNFYPREAKVQWKVDNALQSGNSQESVTEQDSKDSTYSLSSTLTLSKADYEKHKVYACEVTHQGLSSPVTKSFNRGEC

Columns and labels:
[1] = target: Recombinant Human IL-1β (human, UniProt P01584 117-269); assay: cell-based or functional assay
[2] = target: T1, Recombinant Human IL-17; assay: cell-based or functional assay

Binder | N-Terminal VD IL-1β Neutralization Assay EC50 [1] [nM] | C-terminal VD IL-17 Neutralization Assay EC50 [2] [nM] | C-Terminal VD IL-1β Neutralization Assay EC50 [1] [nM] | N-terminal VD IL-17 Neutralization Assay EC50 [2] [nM]
B1 | 0.16 | 0.0238 |  | 
B2 | 0.191 | 0.061 |  | 
B3 |  |  | 1.12 | 0.0062
B4 | 0.247 | 0.0424 |  | 
B5 |  |  | 17.4 | 0.0067
B6 |  |  | 3.92 | 0.0083
B7 | 0.139 | 0.0345 |  | 
B8 | 0.0114 | 0.0397 |  | 
B9 |  |  | 2.75 | 0.0045
B10 |  |  | > 20 | 0.0042
B11 | 0.522 | 0.0076 |  | 
